Test results as given in patent publication US20170087188A1, “WNT INDUCED MOTILITY AND ENHANCED ENGRAFTMENT OF CELLS” (OTTAWA HOSPITAL RESEARCH INSTITUTE, priority 2014, published 2017).
Where “and” joins values, the source holds several entries; their conditions need not be identical. Identical values can stand only once. Entries after “also recorded” stand apart in the source; their conditions may differ.

Tests used:
C2C12 cells = experiment: Morphological quantification of triangular polarized C2C12 cells; type: cell-based
Text: Cell migration is typically accompanied by cytoskeletal polarization leading to a distinctive triangular cell shape.
Fzd7-YFP was expressed in myogenic cells and induced polarization by 130% (FIG. 1A and FIG. 9A). […] The majority of Fzd7-YFP localized to small intracellular vesicles associated with the tubulin cytoskeleton in C2C12 cells (FIG. 1B). By contrast, no such localization could be observed for YFP alone (FIG. 9B).
For myoblast culture, satellite cells were FACS purified as described (Bentzinger et al., 2013c) and plated on Collagen-coated dishes (BD Biosciences) in Ham's F10 medium supplemented with 20% FBS and 5 ng/mL of basic FGF (Millipore). C2C12 cells and human myoblasts were cultured as previously described (von Maltzahn et al., 2012). For in vitro morphology quantifications, Wnt7a was used at a concentration of 50 ng/mL.

β-catenin signaling = experiment: TOP-flash luciferase reporter assay in C2C12 cells; type: cell-based; conditions: different concentrations
Description: Different concentrations of Wnt7a were tested to exclude a dose dependent effect on β-catenin signaling, as measured by induction of TOP-flash activity in C2C12 cells.
The UBC-Fzd7-Flag (Fzd7-Flag), CMV-Fzd7-EYFP (Fzd7-YFP), CMV-Fzd3-EYFP (Fzd3-YFP), CMV-EYFP (YFP), CMV-EGFP-Rac1-wt (GFP-Rac1, 12980, Addgene), CMV-EGFP-Rac1-T17N (Rac1-DN, 12982, Addgene), CMV-EGFP-RhoA-T19N (RhoA-DN, 12967, Addgene) and CMV-EGFP-Cdc42-T17N (Cdc42-DN, 12976, Addgene) constructs have been described previously (Bentzinger et al., 2013a; Subauste et al., 2000; von Maltzahn et al., 2011). The Fzd7-tdtomato plasmid was generated by replacing the C-terminal YFP in Fzd7-YFP with tdTomato. For TOP-flash and FOP-flash the TCF reporter plasmid kit (17-285, Millipore) was used with the dual-luciferase reporter assay system (E1960, Promega). For normalization pGL4.74[hRluc/TK] (E6921, Promega) was cotransfected. For TOP-flash and FOP-flash assays the cells were transfected with GenJet lipofection reagent (SL100499, SignaGen). Otherwise, Lipofectamine 2000 (11668019, Life Technologies) was used for transfections.

mdx mice = experiment: Transplantation of Wnt7a-treated human primary myoblasts into mdx mice; type: in vivo, mouse
Description: The effectiveness of Wnt7a on human myoblasts, in vivo, was tested using the same experimental paradigm that we previously used for mouse myoblasts (FIG. 7C). 100,000 human myoblasts were treated ex vivo with Wnt7a for 3 h, and transplanted into immunosuppressed mdx mice. […] (FIG. 7D). […] Moreover, the mean maximal distance between dystrophin-expressing myofiber clusters increased from 1.8 mm under the Veh. condition to 3.0 mm for Wnt7a treatment (FIG. 7F).
Transplantation of zsGreen-expressing satellite cells or myoblasts into mdx mice was performed as previously described (Bentzinger et al., 2013c). Before transplantation the cells were treated for 3 h with Wnt7a, Wnt5a, or Wnt3a (R&D Systems) at a concentration of 50 ng/mL for freshly isolated satellite cells or with 100 ng/mL for cultured cells. Myoblasts expressing tdTomato were transplanted into uninjured muscles of C57BL/6 mice that were implanted with an osmotic pump (Alzet) delivering FK506 (Sigma) at 2.5 mg/kg/day 3 days prior to the transplantations. In some experiments, the injection site was marked with blue fluorescent microspheres (2 μm, Life Technologies) that were added at a concentration of 1:100 (vol/vol) to the cell suspension. 10 μl of the cell-microsphere suspension was injected into the TA of each mouse using a Hamilton syringe.

[1] = tested on: tibialis anterior (TA) muscle; experiment: In vivo myoblast dispersal assay, tdTomato myoblasts into TA of C57BL/6 mice; set-up: species or system mouse; conditions: myoblasts treated 3 h, transplanted into TA of immunosuppressed C57BL/6 mice; 7 days; vs Veh.
Description: The duration of effects on cell migration were tested by loading intracellular stores with Wnt7a. tdTomato-expressing primary myoblasts, derived from tamoxifen treated Pax7-CreER; R26R-tdTomato mice (Yin et al., 2013a) were exposed to Wnt7a for 3 h; then the cells were washed and transplanted into the tibialis anterior (TA) muscle of immunosuppressed C57BL/6 mice (FIG. 5A). The myoblasts were co-injected with fluorescent microspheres to identify the injection site in subsequent analyses. 7 days later the mice were sacrificed and the behavior of the transplanted cells in the tissue was analyzed by scoring the number of tdTomato-expressing myofibers that were generated by fusion events with the donor cells. Transplantation of zsGreen-expressing satellite cells or myoblasts into mdx mice was performed as previously described (Bentzinger et al., 2013c). Before transplantation the cells were treated for 3 h with Wnt7a, Wnt5a, or Wnt3a (R&D Systems) at a concentration of 50 ng/mL for freshly isolated satellite cells or with 100 ng/mL for cultured cells. Myoblasts expressing tdTomato were transplanted into uninjured muscles of C57BL/6 mice that were implanted with an osmotic pump (Alzet) delivering FK506 (Sigma) at 2.5 mg/kg/day 3 days prior to the transplantations. […]

satellite cells = experiment: Live imaging of satellite cells on single cultured myofibers; type: cell-based, mouse; conditions: Wnt7a 1.5 μg/mL; compared to Veh.
Description: The effect of Wnt7a on satellite cell migration was measured using a time lapse imaging technique previously employed to monitor satellite cells on single muscle myofibers (Siegel et al., 2009). Wnt7a increased the mean velocity of satellite cells by 31% when compared to Veh. (FIG. 2F). […] (FIG. 2G).
Single cell imaging of cells transfected with Fzd7-YFP or YFP was performed on an LSM710 confocal microscope under 5% CO2 at 37° C. in phenol-red free DMEM (Life technologies) containing 10% FBS. Imaging of satellite cells on fibers was performed as described (Siegel et al., 2009). For live imaging of satellite cells on myofibers, Wnt7a was used at a concentration of 1.5 μg/mL. Satellite cell time-lapse microscopy was performed using a Leica DMI 5100 inverted microscope and MetaMorph 7.6.1 Software (Molecular Devices) with time points being acquired every 7 minutes in a stagetop incubator (LiveCell Imaging). ImageJ analyzed the time-lapse data to calculate the velocity, defined as distance (um)/time (hr), between time points and the average velocity of each cell was calculated. The maximum velocity is defined as the highest velocity obtained by a single cell during the tracking period.

B1: Wnt7a: non-canonical Wnt polypeptide (R&D Systems) used to treat or load myogenic cells (protein, UniProt O00755 32-349, looked up)
Protein Wnt-7a: LGASIICNKIPGLAPRQRAICQSRPDAIIVIGEGSQMGLDECQFQFRNGRWNCSALGERTVFGKELKVGSREAAFTYAIIAAGVAHAITAACTQGNLSDCGCDKEKQGQYHRDEGWKWGGCSADIRYGIGFAKVFVDAREIKQNARTLMNLHNNEAGRKILEENMKLECKCHGVSGSCTTKTCWTTLPQFRELGYVLKDKYNEAVHVEPVRASRNKRPTFLKIKKPLSYRKPMDTDLVYIEKSPNYCEEDPVTGSVGTQGRACNKTAPQASGCDLMCCGRGYNTHQYARVWQCNCKFHWCCYVKCNTCSERTEMYTCK
increase in the abundance of triangular polarized cells (C2C12 cells; C2C12 myoblasts, vs vehicle treated cells expressing YFP, Wnt7a 50 ng/mL): 111% | increase in cell polarization (C2C12 cells; Fzd7-YFP expressing C2C12 cells treated with Wnt7a): 167% | TOP-flash reporter activity (β-catenin signaling): does not activate the TOP-flash reporter at any tested concentration; also recorded: did not increase TOP-flash reporter activity | increase in the number of dystrophin-expressing myofibers (mdx mice; 100,000 human myoblasts treated ex vivo 3 h, immunosuppressed mdx mice, compared to Veh.): 226% and > 200% | mean maximal distance between dystrophin-expressing myofiber clusters (mdx mice; human myoblasts treated ex vivo 3 h, mdx mice): 3.0 mm | increase in fiber feret (mdx mice; myofibers fused to Wnt7a-treated human myoblasts, mdx mice): 29% | increase in number of tdTomato-expressing myofibers [1]: 119% | higher directional persistence (satellite cells): 36% | increase in mean velocity of satellite cells (satellite cells): 31% | mean maximal velocity (satellite cells): not significantly different; also recorded: not substantially different
